According to patent US20170044259A1 (CYTOMX THERAPEUTICS, published 2017):
Changes are numbered by the printed parent chain.

B1: PD-1 1.5 PD01 2001 (antibody, human IgG4 S228P, kappa)
heavy: not shown
light: QGQSGQGAMSGCSWSAFCPYLAGGGSSGGSISSGLLSGRSDNHGGGSDIQLTQSPSSLSASVGDRVTITCRASESVDAYGISFMNWFQQKPGKAPKLLIYAASNQGSGVPSRFSGSGSGTDFTLTISSMQPEDFATYYCQQSKDVPWTFGQGTKLEIKRTVAAPSVFIFPPSDEQLKSGTASVVCLLNNFYPREAKVQWKVDNALQSGNSQESVTEQDSKDSTYSLSSTLTLSKADYEKHKVYACEVTHQGLSSPVTKSFNRGEC
B2: PD-1 1.5 PD010 2001 (antibody, human IgG4 S228P, kappa)
heavy: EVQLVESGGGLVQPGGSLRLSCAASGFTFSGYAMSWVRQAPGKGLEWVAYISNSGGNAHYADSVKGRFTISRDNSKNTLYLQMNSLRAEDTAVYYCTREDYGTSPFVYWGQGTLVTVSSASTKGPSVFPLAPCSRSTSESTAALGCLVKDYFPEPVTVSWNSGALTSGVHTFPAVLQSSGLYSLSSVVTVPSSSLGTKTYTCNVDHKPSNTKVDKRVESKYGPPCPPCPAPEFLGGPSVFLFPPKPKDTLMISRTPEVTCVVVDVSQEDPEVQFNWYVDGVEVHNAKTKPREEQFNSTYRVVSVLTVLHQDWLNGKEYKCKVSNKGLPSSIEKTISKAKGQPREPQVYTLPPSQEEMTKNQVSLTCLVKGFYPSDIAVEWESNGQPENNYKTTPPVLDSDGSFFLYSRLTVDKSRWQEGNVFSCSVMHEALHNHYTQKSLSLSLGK
light: QGQSGQGGLCSWYLSSSGLCVDGGGSSGGSISSGLLSGRSDNHGGGSDIQLTQSPSSLSASVGDRVTITCRASESVDAYGISFMNWFQQKPGKAPKLLIYAASNQGSGVPSRFSGSGSGTDFTLTISSMQPEDFATYYCQQSKDVPWTFGQGTKLEIKRTVAAPSVFIFPPSDEQLKSGTASVVCLLNNFYPREAKVQWKVDNALQSGNSQESVTEQDSKDSTYSLSSTLTLSKADYEKHKVYACEVTHQGLSSPVTKSFNRGEC
B3: PD-1 1.5 PD016 2001 (antibody, human IgG4 S228P, kappa)
heavy: not shown
light: B2 light with G8V, S11A, W12A, L14A, S15L, L19I, V21G, D22G
B4: PD-1 1.5 PD008 2001 (antibody, human IgG4 S228P, kappa)
heavy: not shown
light: B2 light with G8E, L9T, S11N, W12Q, L14E, S15R, V21F, D22A
B5: PD-1 1.5 PD014 2001 (antibody, human IgG4 S228P, kappa)
heavy: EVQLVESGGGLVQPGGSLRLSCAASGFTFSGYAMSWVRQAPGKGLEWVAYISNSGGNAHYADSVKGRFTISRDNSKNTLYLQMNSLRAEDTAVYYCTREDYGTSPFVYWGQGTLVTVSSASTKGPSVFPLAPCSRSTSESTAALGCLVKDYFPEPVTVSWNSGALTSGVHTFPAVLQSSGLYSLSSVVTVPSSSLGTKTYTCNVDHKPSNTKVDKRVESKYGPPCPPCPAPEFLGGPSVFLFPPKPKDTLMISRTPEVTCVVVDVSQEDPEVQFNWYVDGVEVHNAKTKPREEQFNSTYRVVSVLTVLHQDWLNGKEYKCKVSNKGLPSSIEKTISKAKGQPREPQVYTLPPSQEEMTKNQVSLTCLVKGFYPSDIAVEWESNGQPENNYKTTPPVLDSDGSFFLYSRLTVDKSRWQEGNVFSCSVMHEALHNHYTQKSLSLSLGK
light: B2 light with G8M, L9S, C10H, S11C, Y13M, L14F, G18C, L19D, C20G, D22K
B6: PD-1 1.5 PD013 2001 (antibody, human IgG4 S228P, kappa)
heavy: not shown
light: B2 light with G8S, L9C, C10P, S11L, W12Y, Y13V, L14M, S17F, L19G, V21W
B7: PD-1 1.5 PD020 2001 (antibody, human IgG4 S228P, kappa)
heavy: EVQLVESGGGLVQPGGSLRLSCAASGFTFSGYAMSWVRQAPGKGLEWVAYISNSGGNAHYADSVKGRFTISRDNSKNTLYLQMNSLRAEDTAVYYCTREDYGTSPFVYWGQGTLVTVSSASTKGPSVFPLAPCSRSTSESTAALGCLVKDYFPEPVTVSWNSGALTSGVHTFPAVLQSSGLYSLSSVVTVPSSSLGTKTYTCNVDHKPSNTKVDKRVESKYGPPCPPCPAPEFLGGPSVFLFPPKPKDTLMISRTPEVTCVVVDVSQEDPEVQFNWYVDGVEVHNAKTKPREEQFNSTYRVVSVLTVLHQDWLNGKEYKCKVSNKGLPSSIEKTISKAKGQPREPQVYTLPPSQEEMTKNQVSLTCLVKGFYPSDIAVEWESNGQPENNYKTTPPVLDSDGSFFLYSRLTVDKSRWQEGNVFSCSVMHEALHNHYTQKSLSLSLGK
light: B2 light with G8S, L9V, S11P, W12M, L14A, S15L, G18M, V21G, D22A
B8: PD-1 1.5 PD003 2001 (antibody, human IgG4 S228P, kappa)
heavy: not shown
light: B2 light with G8L, L9V, S11P, W12L, L14A, S15L, L19V, V21M, D22G
B9: PD-1 1.5 PD023 2001 (antibody, human IgG4 S228P, kappa)
heavy: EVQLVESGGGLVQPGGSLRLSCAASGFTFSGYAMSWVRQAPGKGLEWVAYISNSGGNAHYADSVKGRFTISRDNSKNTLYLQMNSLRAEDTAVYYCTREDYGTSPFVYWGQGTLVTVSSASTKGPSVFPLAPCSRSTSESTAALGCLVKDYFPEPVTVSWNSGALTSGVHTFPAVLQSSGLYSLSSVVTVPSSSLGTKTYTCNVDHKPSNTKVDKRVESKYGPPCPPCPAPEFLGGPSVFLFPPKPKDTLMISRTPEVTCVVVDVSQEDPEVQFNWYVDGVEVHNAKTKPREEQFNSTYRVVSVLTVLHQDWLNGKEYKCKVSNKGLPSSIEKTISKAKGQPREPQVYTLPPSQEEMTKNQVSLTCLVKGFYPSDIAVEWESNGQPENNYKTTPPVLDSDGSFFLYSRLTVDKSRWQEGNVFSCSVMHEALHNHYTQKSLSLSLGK
light: B1 light with A8S, S10A, S13Q, A16S, P19V, Y20Q, L21R, A22D
B10: PD-1 1.5 PD015 2001 (antibody, human IgG4 S228P, kappa)
heavy: not shown
light: QGQSGQGVSYCTWLIEVTCLRGGGGSSGGSISSGLLSGRSDNHGGGSDIQLTQSPSSLSASVGDRVTITCRASESVDAYGISFMNWFQQKPGKAPKLLIYAASNQGSGVPSRFSGSGSGTDFTLTISSMQPEDFATYYCQQSKDVPWTFGQGTKLEIKRTVAAPSVFIFPPSDEQLKSGTASVVCLLNNFYPREAKVQWKVDNALQSGNSQESVTEQDSKDSTYSLSSTLTLSKADYEKHKVYACEVTHQGLSSPVTKSFNRGEC
B11: PD-1 1.5 PD005 2001 (antibody, human IgG4 S228P, kappa)
heavy: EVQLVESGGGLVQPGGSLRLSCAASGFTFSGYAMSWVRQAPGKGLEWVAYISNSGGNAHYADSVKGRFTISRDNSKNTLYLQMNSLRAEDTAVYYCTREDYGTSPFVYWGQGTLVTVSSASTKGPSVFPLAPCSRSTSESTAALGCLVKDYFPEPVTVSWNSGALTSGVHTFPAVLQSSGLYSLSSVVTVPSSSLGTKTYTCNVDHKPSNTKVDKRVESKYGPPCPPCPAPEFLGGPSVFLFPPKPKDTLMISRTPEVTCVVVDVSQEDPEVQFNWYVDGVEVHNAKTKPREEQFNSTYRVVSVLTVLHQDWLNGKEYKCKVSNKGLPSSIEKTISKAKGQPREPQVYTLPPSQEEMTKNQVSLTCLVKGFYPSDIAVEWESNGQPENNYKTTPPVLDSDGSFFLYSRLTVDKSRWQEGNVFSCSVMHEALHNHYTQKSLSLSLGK
light: QGQSGQGMLVCSLQPTAMCERVGGGSSGGSISSGLLSGRSDNHGGGSDIQLTQSPSSLSASVGDRVTITCRASESVDAYGISFMNWFQQKPGKAPKLLIYAASNQGSGVPSRFSGSGSGTDFTLTISSMQPEDFATYYCQQSKDVPWTFGQGTKLEIKRTVAAPSVFIFPPSDEQLKSGTASVVCLLNNFYPREAKVQWKVDNALQSGNSQESVTEQDSKDSTYSLSSTLTLSKADYEKHKVYACEVTHQGLSSPVTKSFNRGEC
B12: PD-1 1.5 PD011 2001 (antibody, human IgG4 S228P, kappa)
heavy: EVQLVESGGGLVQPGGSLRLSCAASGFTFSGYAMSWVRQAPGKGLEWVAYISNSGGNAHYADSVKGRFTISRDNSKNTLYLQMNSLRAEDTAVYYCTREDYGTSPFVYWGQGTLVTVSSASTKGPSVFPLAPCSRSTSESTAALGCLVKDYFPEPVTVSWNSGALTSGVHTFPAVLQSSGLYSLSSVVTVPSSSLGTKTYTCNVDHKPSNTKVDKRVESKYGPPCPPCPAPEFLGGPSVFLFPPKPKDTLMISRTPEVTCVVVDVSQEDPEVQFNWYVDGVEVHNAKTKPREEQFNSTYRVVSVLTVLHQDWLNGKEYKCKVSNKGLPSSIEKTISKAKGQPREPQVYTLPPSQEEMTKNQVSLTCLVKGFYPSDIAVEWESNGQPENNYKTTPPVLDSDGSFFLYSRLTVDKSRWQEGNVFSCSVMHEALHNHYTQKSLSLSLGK
light: B11 light with M8V, L9P, V10W, S12Q, Q14T, T16R, A17V, E20M, R21W, V22A
B13: PD-1 1.5 PD002 2001 (antibody, human IgG4 S228P, kappa)
heavy: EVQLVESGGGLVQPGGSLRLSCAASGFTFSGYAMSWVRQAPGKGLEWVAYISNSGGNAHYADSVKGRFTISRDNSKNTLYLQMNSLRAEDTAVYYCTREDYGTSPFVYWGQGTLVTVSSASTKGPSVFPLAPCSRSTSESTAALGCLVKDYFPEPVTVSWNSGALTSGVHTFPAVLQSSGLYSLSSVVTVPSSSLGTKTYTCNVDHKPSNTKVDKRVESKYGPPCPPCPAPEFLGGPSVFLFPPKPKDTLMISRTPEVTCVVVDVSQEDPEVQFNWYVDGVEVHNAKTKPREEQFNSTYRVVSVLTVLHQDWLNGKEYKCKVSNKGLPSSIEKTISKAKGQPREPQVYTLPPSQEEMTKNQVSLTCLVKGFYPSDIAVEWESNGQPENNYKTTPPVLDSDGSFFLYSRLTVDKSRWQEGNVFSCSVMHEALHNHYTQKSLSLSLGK
light: QGQSGQGDVNCAIWYSVCTTVPGGGSSGGSISSGLLSGRSDNHGGGSDIQLTQSPSSLSASVGDRVTITCRASESVDAYGISFMNWFQQKPGKAPKLLIYAASNQGSGVPSRFSGSGSGTDFTLTISSMQPEDFATYYCQQSKDVPWTFGQGTKLEIKRTVAAPSVFIFPPSDEQLKSGTASVVCLLNNFYPREAKVQWKVDNALQSGNSQESVTEQDSKDSTYSLSSTLTLSKADYEKHKVYACEVTHQGLSSPVTKSFNRGEC
B14: A1.5 (antibody, human IgG4 S228P, kappa)
heavy: not shown
light: DIQLTQSPSSLSASVGDRVTITCRASESVDAYGISFMNWFQQKPGKAPKLLIYAASNQGSGVPSRFSGSGSGTDFTLTISSMQPEDFATYYCQQSKDVPWTFGQGTKLEIKRTVAAPSVFIFPPSDEQLKSGTASVVCLLNNFYPREAKVQWKVDNALQSGNSQESVTEQDSKDSTYSLSSTLTLSKADYEKHKVYACEVTHQGLSSPVTKSFNRGEC
notes: humanized, full length hIgG4/hKappa; also called A1.5 Ab
B15: PD-1 1.5 PD022 2001 (antibody, human IgG4 S228P, kappa)
heavy: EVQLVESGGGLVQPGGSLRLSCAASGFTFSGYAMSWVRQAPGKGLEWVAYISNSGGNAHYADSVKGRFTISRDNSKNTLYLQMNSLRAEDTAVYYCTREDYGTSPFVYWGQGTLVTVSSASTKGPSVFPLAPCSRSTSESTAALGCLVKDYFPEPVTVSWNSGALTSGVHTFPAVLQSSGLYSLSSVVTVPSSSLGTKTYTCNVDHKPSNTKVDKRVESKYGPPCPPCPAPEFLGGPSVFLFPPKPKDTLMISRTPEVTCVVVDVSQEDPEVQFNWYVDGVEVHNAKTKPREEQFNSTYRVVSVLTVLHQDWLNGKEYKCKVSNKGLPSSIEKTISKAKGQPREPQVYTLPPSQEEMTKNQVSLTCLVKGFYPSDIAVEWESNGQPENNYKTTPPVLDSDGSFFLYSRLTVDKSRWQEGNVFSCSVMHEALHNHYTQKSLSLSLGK
light: QGQSGQGFYCTYLVSLTCHPQGGGSSGGSISSGLLSGRSDNHGGGSDIQLTQSPSSLSASVGDRVTITCRASESVDAYGISFMNWFQQKPGKAPKLLIYAASNQGSGVPSRFSGSGSGTDFTLTISSMQPEDFATYYCQQSKDVPWTFGQGTKLEIKRTVAAPSVFIFPPSDEQLKSGTASVVCLLNNFYPREAKVQWKVDNALQSGNSQESVTEQDSKDSTYSLSSTLTLSKADYEKHKVYACEVTHQGLSSPVTKSFNRGEC
B16: PD-1 1.5 PD024 2001 (antibody, human IgG4 S228P, kappa)
heavy: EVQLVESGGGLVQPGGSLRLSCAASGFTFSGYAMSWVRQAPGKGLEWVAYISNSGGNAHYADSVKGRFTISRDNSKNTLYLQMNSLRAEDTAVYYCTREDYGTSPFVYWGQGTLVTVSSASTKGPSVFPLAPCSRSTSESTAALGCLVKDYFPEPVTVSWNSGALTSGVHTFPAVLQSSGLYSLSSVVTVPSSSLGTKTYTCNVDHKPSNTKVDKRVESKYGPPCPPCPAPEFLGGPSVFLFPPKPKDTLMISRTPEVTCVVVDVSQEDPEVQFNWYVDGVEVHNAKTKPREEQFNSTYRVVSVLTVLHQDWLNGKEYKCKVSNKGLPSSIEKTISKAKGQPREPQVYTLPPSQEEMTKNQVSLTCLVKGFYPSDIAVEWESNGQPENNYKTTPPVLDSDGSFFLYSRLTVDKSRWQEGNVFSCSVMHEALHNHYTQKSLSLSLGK
light: QGQSGQGIYSCYMFASRCTSDKGGGSSGGSISSGLLSGRSDNHGGGSDIQLTQSPSSLSASVGDRVTITCRASESVDAYGISFMNWFQQKPGKAPKLLIYAASNQGSGVPSRFSGSGSGTDFTLTISSMQPEDFATYYCQQSKDVPWTFGQGTKLEIKRTVAAPSVFIFPPSDEQLKSGTASVVCLLNNFYPREAKVQWKVDNALQSGNSQESVTEQDSKDSTYSLSSTLTLSKADYEKHKVYACEVTHQGLSSPVTKSFNRGEC
B17: PD-1 1.5 PD018 2001 (antibody, human IgG4 S228P, kappa)
heavy: not shown
light: B16 light with I8A, Y9P, S10R, R17Y, T19K, D21Q, K22Y
B18: PD-1 1.5 PD021 2001 (antibody, human IgG4 S228P, kappa)
heavy: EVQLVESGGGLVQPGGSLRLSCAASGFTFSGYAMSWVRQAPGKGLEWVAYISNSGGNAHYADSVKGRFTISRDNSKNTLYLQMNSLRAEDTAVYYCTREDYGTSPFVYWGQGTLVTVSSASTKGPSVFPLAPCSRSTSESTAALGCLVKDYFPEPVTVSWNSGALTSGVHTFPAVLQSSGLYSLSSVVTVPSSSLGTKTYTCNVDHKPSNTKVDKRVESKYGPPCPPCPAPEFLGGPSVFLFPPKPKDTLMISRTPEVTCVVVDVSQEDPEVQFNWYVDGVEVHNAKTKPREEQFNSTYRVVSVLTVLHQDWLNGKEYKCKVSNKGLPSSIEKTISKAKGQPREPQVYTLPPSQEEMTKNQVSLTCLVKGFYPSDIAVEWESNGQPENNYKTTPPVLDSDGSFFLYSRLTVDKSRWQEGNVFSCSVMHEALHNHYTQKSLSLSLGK
light: QGQSGQGLSVECYVFSRCSSLPGGGSSGGSISSGLLSGRSDNHGGGSDIQLTQSPSSLSASVGDRVTITCRASESVDAYGISFMNWFQQKPGKAPKLLIYAASNQGSGVPSRFSGSGSGTDFTLTISSMQPEDFATYYCQQSKDVPWTFGQGTKLEIKRTVAAPSVFIFPPSDEQLKSGTASVVCLLNNFYPREAKVQWKVDNALQSGNSQESVTEQDSKDSTYSLSSTLTLSKADYEKHKVYACEVTHQGLSSPVTKSFNRGEC
B19: masking moiety MP003 (peptide)
peptide: TNIWSCQTYCDHKHK
notes: bacterial display clone; also called MP03
B20: masking moiety MP002 (peptide)
peptide: ILCPEDPWGHKCKLP
notes: bacterial display clone; also called MP02; MP-02
B21: masking moiety MP008 (peptide)
peptide: ACRICQDHPKTKWNS
notes: bacterial display clone; also called MP08
B22: masking moiety MP004 (peptide)
peptide: SDHKCKLQNCMNTKV
notes: bacterial display clone; also called MP04
B23: masking moiety MP010 (peptide)
peptide: IPCHHSADHKHKCTS
notes: bacterial display clone; also called MP10
B24: masking moiety MP007 (peptide)
peptide: TIPRCGQHPKCKDTL
notes: bacterial display clone; also called MP07
B25: masking moiety MP006 (peptide)
peptide: VEHLCYTHNKCKHPD
notes: bacterial display clone; also called MP06
B26: masking moiety MP011 (peptide)
peptide: SRQICADYNCHNKYK
notes: bacterial display clone; also called MP11
B27: masking moiety MP009 (peptide)
peptide: LIQCTGNLDHKCKHY
notes: bacterial display clone; also called MP09
B28: masking moiety MP001 (peptide)
peptide: DYTYCRWVNWCLSGV
notes: bacterial display clone; also called MP01; MP-01
B29: masking moiety MP005 (peptide)
peptide: PGNCHPMQKEMCQFI
notes: bacterial display clone; also called MP05

Target: T1, human PD-1-Fc (R and D systems, Minneapolis, Minn.) (human, UniProt Q15116 25-167)
T1 construct: bought; also called hPD-1-Fc; hPD-1; not shown: Fc part of the bought fusion
Test: plate ELISA on human PD-1-Fc; apparent KD

T1 sequence (Q15116 25-167 limits assumed): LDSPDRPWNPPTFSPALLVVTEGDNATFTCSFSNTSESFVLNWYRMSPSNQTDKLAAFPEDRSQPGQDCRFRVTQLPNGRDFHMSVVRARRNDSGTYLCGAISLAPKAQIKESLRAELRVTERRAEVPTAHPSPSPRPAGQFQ

| Kd [nM] | Binder |
| --- | --- |
| 348 | B1 |
| 54 | B2 |
| 57 | B3 |
| 55 | B4 |
| 100 | B5 |
| 151 | B6 |
| 77 | B7 |
| 109 | B8 |
| 31 | B9 |
| 117 | B10 |
| 68 | B11 |
| 67 | B12 |
| 21 | B13 |
| 1.8 | B14 |
| 41 | B15 |
| 92 | B16 |
| 75 | B17 |
| 49 | B18 |

Target: T1, human PD-1-Fc (R and D systems, …)
Test: plate ELISA on human PD-1-Fc; reference A1.5

| Masking Efficiency | Binder |
| --- | --- |
| 193 | B1 |
| 30 | B2 |
| 32 | B3 |
| 31 | B4 |
| 56 | B5 |
| 84 | B6 |
| 43 | B7 |
| 61 | B8 |
| 17 | B9 |
| 65 | B10 |
| 38 | B11 |
| 37 | B12 |
| 12 | B13 |
| 23 | B15 |
| 51 | B16 |
| 42 | B17 |
| 27 | B18 |

Target: T2, J43v2 mIgG2a
T2 construct: also called J43 m2a; J43v2 m2a
Test: bacterial display clone with DyLight 650 labeled J43v2 m2a

T2 sequence (VH, as listed by the source, chain 1 of 2): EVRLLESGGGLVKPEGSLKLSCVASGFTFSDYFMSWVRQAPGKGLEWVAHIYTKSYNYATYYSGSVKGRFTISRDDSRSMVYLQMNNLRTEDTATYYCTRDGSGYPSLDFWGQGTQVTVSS
T2 sequence (VL, as listed by the source, chain 2 of 2): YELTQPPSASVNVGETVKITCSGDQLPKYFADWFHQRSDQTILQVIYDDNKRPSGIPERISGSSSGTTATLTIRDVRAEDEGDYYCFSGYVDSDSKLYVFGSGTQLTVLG

| binding result | Binder |
| --- | --- |
| binds | B19 |
| binds | B20 |
| binds | B21 |
| binds | B22 |
| binds | B23 |
| binds | B24 |
| binds | B25 |
| binds | B26 |
| binds | B27 |
| binds | B28 |
| binds | B29 |
